From patent publication US20040138119 come the findings set out here.

Data set [1] deals with purified recombinant Survivin (untagged).
For data set [2], the target named is combination of His6-HBXIP and Survivin.
The target in data set [3] is His6-HBXIP.

B1: recombinant active Caspase-3 (protein)
chain: SGISLDNSYKMDYPEMGLCIIINNKNFHKSTGMTSRSGTDVDAANLRETFRNLKYEVRNKNDLTREEIVELMRDVSKEDHSKRSSFVCVLLSHGEEGIIFGTNGPVDLKKITNFFRGDRCRSLTGKPKLFIIQACRGTELDCGIETDSGVDDDMACHKIPVEADFLYAYSTAPGYYSWRNSKDGSWFIQSLCAMLKQYADKLEFMHILTRVNRKVATEFESFSFDATFHAKKQIPCIVSMLTKELYFYH
As to B1, the “Caspase-3 protease activity, hydrolysis of Ac-DEVD-AFC” value in data set [1] is “Even at a 1000-fold molar excess of Survivin relative to active Caspase-3, essentially no inhibition was observed”.

B2: His6-pro-Caspase-9 (protein)
chain: HHHHHHMDEADRRLLRRCRLRLVEELQVDQLWDALLSRELFRPHMIEDIQRAGSGSRRDQARQLIIDLETRGSQALPLFISCLEDTGQDMLASFLRTNRQAAKLSKPTLENLTPVVLRPEIRKPEVLRPETPRPVDIGSGGFGDVGALESLRGNADLAYILSMEPCGHCLIINNVNFCRESGLRTRTGSNIDCEKLRRRFSSLHFMVEVKGDLTAKKMVLALLELAQQDHGALDCCVVVILSHGCQASHLQFPGAVYGTDGCPVSVEKIVNIFNGTSCPSLGGKPKLFFIQACGGEQKDHGFEVASTSPEDESPGSNPEPDATPFQEGLRTFDQLDAISSLPTPSDIFVSYSTFPGFVSWRDPKSGSWYVETLDDIFEQWAHSEDLQSLLLRVANAVSVKGIYKQMPGCFNFLRKKLFFKTS
Turning to B2, the “Caspase-9 activity (cleavage of Ac-LEHD-AFC) and pro-Caspase-9 processing after Apaf1, Cytochrome C and dATP” value in data set [1] is “Addition of either recombinant purified Survivin or HBXIP individually was ineffective at blocking Apaf1-mediated activation and proteolytic processing of pro-Caspase-9 in vitro”; in data set [2], “the combination of Survivin and HBXIP effectively suppressed generation of Caspase-9 protease activity”; in data set [3], “Addition of either recombinant purified Survivin or HBXIP individually was ineffective at blocking Apaf1-mediated activation and proteolytic processing of pro-Caspase-9 in vitro”.
